In article PMC3795024, “A Structure-Guided Mutation in the Major Capsid Protein Retargets BK Polyomavirus” (PLoS Pathogens, 2013):

Tests used:
SV40 VP1 = biological target: T1, SV40 VP1 (Betapolyomavirus macacae, UniProt P03087); test: STD NMR; assay type: binding; details: 19-22 µM protein, 1 mM ligand, pH 7.5, 283 K, D2O
T1 construct: recombinant VP1 pentamer, detected with anti-poly-histidine antibody

[1] = biological target: BKPyV VP1 pentamer (30-300) F75V (BK polyomavirus (BKPyV)); test: SEC; gel filtration of purified mutant pentamers; data not shown
[2] = biological target: BKPyV VP1 pentamer (30-300) F75W (BK polyomavirus (BKPyV)); test: as above
[3] = biological target: BKPyV VP1 pentamer (30-300) H138A (BK polyomavirus (BKPyV)); test: as above
[4] = biological target: BKPyV VP1 pentamer (30-300) L62W (BK polyomavirus (BKPyV)); test: as above
[5] = biological target: BKPyV VP1 pentamer (30-300) S274A (BK polyomavirus (BKPyV)); test: as above
[6] = biological target: BKPyV VP1 pentamer (30-300) S274A/T276A (BK polyomavirus (BKPyV)); test: as above
[7] = biological target: BKPyV VP1 pentamer (30-300) T276A (BK polyomavirus (BKPyV)); test: as above
[8] = biological target: BKPyV VP1 pentamer (amino acids 30-300 of BKPyV VP1, His-tag cleaved) (BK polyomavirus (BKPyV)); test: crystal structure; sitting drop vapor diffusion at 20°C, 16–18% PEG 3,350, 0.1 M HEPES pH 7.5, 0.25 M LiCl, protein with 20 mM DTT; unliganded and soaked with 20 mM GD3 oligosaccharide

Compound: CC(=O)N[C@H]1[C@H](O[C@@H]2[C@H](O[C@]3(C(=O)O)C[C@H](O)[C@@H](NC(C)=O)[C@H]([C@H](O)[C@H](O)CO)O3)[C@@H](O)[C@H](O[C@H]3[C@H](O)[C@@H](O)C(O)O[C@@H]3CO)O[C@@H]2CO)O[C@H](CO)[C@H](O)[C@@H]1O[C@@H]1O[C@H](CO)[C@H](O)[C@H](O)[C@H]1O (stereo partly drawn) [GM1, GM1 oligosaccharide]
- STD NMR (SV40 VP1): as efficient as for the SV40 VP1-GM1 pair, which was included for comparison

Compound: BKPyV VP1 pentamer (30-300) F75V (domain or fragment)
- stoichiometry N [1]: 5

Compound: BKPyV VP1 pentamer (30-300) F75W (domain or fragment)
- stoichiometry N [2]: 5

Compound: BKPyV VP1 pentamer (30-300) H138A (domain or fragment)
- stoichiometry N [3]: 5

Compound: BKPyV VP1 pentamer (30-300) L62W (domain or fragment)
- stoichiometry N [4]: 5

Compound: BKPyV VP1 pentamer (30-300) S274A (domain or fragment)
- stoichiometry N [5]: 5

Compound: BKPyV VP1 pentamer (30-300) S274A/T276A (domain or fragment)
- stoichiometry N [6]: 5

Compound: BKPyV VP1 pentamer (30-300) T276A (domain or fragment)
- stoichiometry N [7]: 5

Compound: BKPyV VP1 pentamer (amino acids 30-300 of BKPyV VP1, His-tag cleaved) (domain or fragment)
- stoichiometry N [8]: 5
